Earlier results in publication PMC6605686.

Target: Glu325 (UniProt position 325, TLHMFEVPFLL)
Assay: kinetics
Details: sugar binding to LacY; apparent pK of galactoside affinity

Lactose permease (LacY) (Escherichia coli)
pKa: ∼10.5
